Measurements taken from the supplement of paper PMC9112550, “Optimization of the antimicrobial peptide Bac7 by deep mutational scanning” (BMC Biology, 2022).

System: Escherichia coli TOP10
Test: shrunken log2 fold change of peptide-encoding DNA abundance (4.5 h post-induction vs induction); higher = less antimicrobial activity (less host growth inhibition)
Settings: time post-induction: 4.5 h; library: site-saturation at positions 5, 18, 19, 20
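Further: peptides expressed intracellularly from a pBAD plasmid library in pooled LB shake-flask culture, induced with 0.3% L-arabinose, DNA abundance read by NGS, three biological replicates, DESeq2 with apeglm shrinkage.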

Sequence | shrunken log2 fold change
RRIRSRPPRLPRPRPRPTVAPRP | 0.243
RRIRSRPPRLPRPRPRPTVDPRP | 0.16
RRIRSRPPRLPRPRPRPTVTPRP | 0.166
RRIRSRPPRLPRPRPRPTWHPRP | 0.179
RRIRSRPPRLPRPRPRPTWSPRP | -0.0422
RRIRSRPPRLPRPRPRPVFAPRP | 0.218
RRIRSRPPRLPRPRPRPVFYPRP | -0.266
RRIRSRPPRLPRPRPRPVHFPRP | 0.0527
RRIRSRPPRLPRPRPRPVICPRP | -0.0365
RRIRSRPPRLPRPRPRPVILPRP | -0.0746
RRIRSRPPRLPRPRPRPVKGPRP | -0.0577
RRIRSRPPRLPRPRPRPVKQPRP | 0.0733
RRIRSRPPRLPRPRPRPVKYPRP | -0.177
RRIRSRPPRLPRPRPRPVLCPRP | -0.00306
RRIRSRPPRLPRPRPRPVMKPRP | -0.45
RRIRSRPPRLPRPRPRPVNFPRP | -0.262
RRIRSRPPRLPRPRPRPVQDPRP | 0.339
RRIRSRPPRLPRPRPRPVRGPRP | 0.573
RRIRSRPPRLPRPRPRPVRQPRP | 0.19
RRIRSRPPRLPRPRPRPVRRPRP | 0.558
RRIRSRPPRLPRPRPRPVTTPRP | -0.163
RRIRSRPPRLPRPRPRPVVKPRP | -0.14
RRIRSRPPRLPRPRPRPVWVPRP | 0.351
RRIRSRPPRLPRPRPRPWAWPRP | -0.131
RRIRSRPPRLPRPRPRPWCSPRP | -0.296

Sequence | shrunken log2 fold change
RRIRSRPPRLPRPRPRPWCYPRP | -0.263
RRIRSRPPRLPRPRPRPWDGPRP | -0.0512
RRIRSRPPRLPRPRPRPWDYPRP | 0.0318
RRIRSRPPRLPRPRPRPWEMPRP | -0.00146
RRIRSRPPRLPRPRPRPWFKPRP | -0.504
RRIRSRPPRLPRPRPRPWFSPRP | -0.544
RRIRSRPPRLPRPRPRPWGSPRP | -0.0403
RRIRSRPPRLPRPRPRPWHIPRP | -0.0156
RRIRSRPPRLPRPRPRPWHMPRP | 0.17
RRIRSRPPRLPRPRPRPWINPRP | -0.205
RRIRSRPPRLPRPRPRPWKDPRP | -0.00804
RRIRSRPPRLPRPRPRPWKSPRP | -0.0239
RRIRSRPPRLPRPRPRPWLMPRP | -0.156
RRIRSRPPRLPRPRPRPWLRPRP | -0.241
RRIRSRPPRLPRPRPRPWMAPRP | 0.0303
RRIRSRPPRLPRPRPRPWNHPRP | -0.0307
RRIRSRPPRLPRPRPRPWNPPRP | -0.00281
RRIRSRPPRLPRPRPRPWNQPRP | 0.0379
RRIRSRPPRLPRPRPRPWPAPRP | 0.199
RRIRSRPPRLPRPRPRPWPTPRP | 0.219
RRIRSRPPRLPRPRPRPWPYPRP | -0.03
RRIRSRPPRLPRPRPRPWQYPRP | 0.0433
RRIRSRPPRLPRPRPRPWRMPRP | -0.181
RRIRSRPPRLPRPRPRPWTMPRP | 0.0795
RRIRSRPPRLPRPRPRPWVDPRP | -0.0314

Sequence | shrunken log2 fold change
RRIRSRPPRLPRPRPRPWVKPRP | 0.194
RRIRSRPPRLPRPRPRPWVSPRP | -0.203
RRIRSRPPRLPRPRPRPWWMPRP | -0.0399
RRIRSRPPRLPRPRPRPWWRPRP | -0.0239
RRIRSRPPRLPRPRPRPYANPRP | -0.185
RRIRSRPPRLPRPRPRPYAWPRP | -0.087
RRIRSRPPRLPRPRPRPYCCPRP | -0.375
RRIRSRPPRLPRPRPRPYEGPRP | -0.213
RRIRSRPPRLPRPRPRPYEYPRP | -0.55
RRIRSRPPRLPRPRPRPYFRPRP | -0.853
RRIRSRPPRLPRPRPRPYGEPRP | -0.256
RRIRSRPPRLPRPRPRPYHDPRP | -0.174
RRIRSRPPRLPRPRPRPYHKPRP | -0.404
RRIRSRPPRLPRPRPRPYHPPRP | -0.00174
RRIRSRPPRLPRPRPRPYHVPRP | -1.09
RRIRSRPPRLPRPRPRPYICPRP | -0.959
RRIRSRPPRLPRPRPRPYITPRP | -0.535
RRIRSRPPRLPRPRPRPYLDPRP | -0.175
RRIRSRPPRLPRPRPRPYMMPRP | -0.36
RRIRSRPPRLPRPRPRPYMRPRP | -0.0496
RRIRSRPPRLPRPRPRPYMWPRP | -0.744
RRIRSRPPRLPRPRPRPYNCPRP | -0.171
RRIRSRPPRLPRPRPRPYNGPRP | -0.0342
RRIRSRPPRLPRPRPRPYQIPRP | -0.106
RRIRSRPPRLPRPRPRPYRLPRP | -0.279
